In patent US20240327505A1 (published 2024):
Positions count from the first letter of the chain named.

B1: AB-009620 (antibody, V domains shown)
VH: QITLKESGPTLVKPTQTLTLTCTFSGFSLSTSGVGVGWIRQPPGKALEWLALIYWDDDKRYSPSLKSRLTITKDTSKNQVVLTMTNMDPVDTATYYCAHHEVATVFDYWGQGTLVTVSS
VL: QSALTQPASVSGSPGQSITISCTGTSSDVGAYNYVSWYQQHPGKAPKLMIYEVSNRPSGVSNRFSGSKSGNTASLTISGLQAEDEADYYCSSYTSSSTVFGGGTKLTVL
B2: AB-009346 (antibody, V domains shown)
VH: EVQLVESGGGVVRPGGSLRLSCAASGFTFDDYGMSWVRQAPGKGLEWVSGINWNGGSTGYADSVKGRFTISRDNAKNSLYLQMNSLRAEDTALYYCARWPLLGISGYYHYYMDVWGKGTTVTVSS
VL: QSALTQPRSVSGSPGQSVTISCTGTSSDVGGYNYVSWYQQHPGKAPKLMIYDVSKRPSGVPDRFSGSKSGNTASLTISGLQAEDEADYYCCSYAGSYTLLFGGGTKLIVL
B3: AB-009760 (antibody, V domains shown)
VH: EVQLVQSGAEVKKPGESLKISCKGSGYSFTSYWIGWVRQMPGKGLEWMGIIYPGDSDTRYSPSFQGQVTISADKSISTAYLQWSSLKASDTAMYYCARSRSSDYFDYWGQGTLVTVSS
VL: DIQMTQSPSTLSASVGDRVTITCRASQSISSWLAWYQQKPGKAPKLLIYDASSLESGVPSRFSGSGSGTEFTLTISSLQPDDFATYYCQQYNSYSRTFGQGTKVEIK
B4: AB-009614 (antibody, V domains shown)
VH: QVQLVESGGGVVQPGRSLRLSCAASGFTFSSYGMHWVRQAPGKGLEWVAVISYDGSNKYYADSVKGRFTISRDNSKNTLYLQMNSLRAEDTAVYYCAKDQKYYDILTGYYRSTYYYYYYGMDVWGQGTTVTVSS
VL: not shown
B5: AB-009769 (antibody, V domains shown)
VH: EVQLVESGGGLVQPGGSLRLSCAASGFTFSSYWMSWVRQAPGKGLEWVANIKQDGSEKYYVDSVKGRFTISRDNAKNSLYLQMNSLRAEDTAVYYCARSPEVLWFGDPVLDNWFDPWGQGTLVTVSS
VL: SYELTQPPSVSVSPGQTARITCSGDALPKQYAYWYQQKPGQAPVLVIYKDSERPSGIPERFSGSSSGTTVTLTISGVQAEDEADYYCQSADSSGTYPVVFGGGTKLTVL
B6: AB-009270 (antibody, V domains shown)
VH: QMQLVQSGPEVKKPGTSVKVSCKASGFTFTSSAMQWVRQARGQRLEWIGWIVVGSGNTNYAQKFQERVTITRDMSTSTAYMELSSLRSEDTAVYYCAVNYCSSTSCYDAFDIWGQGTMVTVSS
VL: not shown
B7: AB-010021 (antibody, V domains shown)
VH: B6 VH with M34V, V98A, N99V, S103G, T104G, Y107L
VL: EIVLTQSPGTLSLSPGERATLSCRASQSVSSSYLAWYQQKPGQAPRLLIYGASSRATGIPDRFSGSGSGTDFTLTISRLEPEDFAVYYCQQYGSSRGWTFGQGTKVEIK
notes: also called AB-0010021
B8: AB-010020 (antibody, V domains shown)
VH: B6 VH with M34V, V98A, N99P, Y100A, A109G
VL: not shown
B9: AB-009610 (antibody, V domains shown)
VH: QVQLVQSGAEVKKPGSSVKVSCKASGGTFSNYAISWVRQAPGQGLEWMGRIIPILGIANYAQKFQGRVTITADKSTSTAYMELSSLRSEDTAVYYCATTPYYYDSSGYYLDYWGQGTLVTVSS
VL: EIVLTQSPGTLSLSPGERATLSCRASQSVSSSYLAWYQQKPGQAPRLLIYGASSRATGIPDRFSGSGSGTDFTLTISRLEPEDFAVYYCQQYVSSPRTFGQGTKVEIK
B10: AB-009281 (antibody, V domains shown)
VH: EVQLVETGGGLIQPGGSLRLSCAASGFTVSSNYMSWVRQAPGKGLEWVSVIYSGGSTYYADSVKGRFTISRDNSKNTLYLQMNSLRAEDTAVYYCARDLYYYGMDVWGQGTTVTVSS
VL: DIQLTQSPSFLSASVGDRVTITCRASQGISSYLAWYQQKPGKAPKLLIYAASTLQSGVPSRFSGSGSGTEFTLTISSLQPEDFATYYCQQLNSYPTFGQGTKVEIK
B11: AB-009613 (antibody, V domains shown)
VH: B10 VH with T7S, L99Y, Y100G, Y101D, Y102F, G103Y, M104F, V106Y, T112L
VL: not shown
B12: AB-009271 (antibody, V domains shown)
VH: B10 VH with T7S, T28I, L99Y, Y100G, Y101D, Y102F, G103Y, M104F, V106Y, T112L
VL: EIVMTQSPATLSVSPGERATLSCRASQSVSSNLAWYQQKPGQAPRLLIYGASTRATGIPARFSGSGSGTEFTLTISSLQSEDFAVYYCQQYYNWPRTFGQGTKVEIK
B13: AB-009661 (antibody, V domains shown)
VH: QVQLVESGGGVVQPGRSLRLSCAASGFTFSSYGMHWVRQAPGKGLEWVAVISYDGSNKYYADSVKGRFTISRDNSKNTLYLQMNSLRAEDTAVYYCAKDYGDYGGMDVWGQGTTVTVSS
VL: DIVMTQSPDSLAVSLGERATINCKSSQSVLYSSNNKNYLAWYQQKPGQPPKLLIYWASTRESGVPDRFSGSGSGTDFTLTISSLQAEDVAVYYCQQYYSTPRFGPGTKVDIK
B14: AB-009615 (antibody, V domains shown)
VH: QVQLVESGGGVVQPGRSLRLSCAASGFTFSSYGMHWVRQAPGKGLEWVAVIWYDGSNKYYADSVKGRFTISRDNSKNTLYLQMNSLRAEDTAVYYCAKVGSPYCSGGSCYSGYFDYWGQGTLVTVSS
VL: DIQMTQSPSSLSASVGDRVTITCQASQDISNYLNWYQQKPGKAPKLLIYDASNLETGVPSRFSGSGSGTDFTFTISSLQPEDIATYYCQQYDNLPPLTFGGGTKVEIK
B15: AB-009734 (antibody, V domains shown)
VH: QVHLVQSGAEVKTPGASVRVSCKASGYTFTSHYMHWVRQAPGQGLEWMGLINPSGSGTAYPQHFQGRVTMTRDTSTTTDYMDLSSLRSEDTAMYFCARMERSGAFDLWGQGTMVTVSS
VL: EIVLTQSPGTLSLSPGERATLSCRASQTISSRYLAWYYQKPGQAPRLLIQGSSIRATGIPDRFSGSGSGTDFTLTISRLEPEDFAVYYCQHYGSSPPMYTFGQGTKLEIK
B16: AB-009747 (antibody, V domains shown)
VH: QVQLVESGGGVVQPGGSLRLSCAASGFTFSNYGMHWVRQAPGKGLEWVAFIRYDGSNEYYADSVKGRFTISRDNSKNTLYLHMNSLRPEDTAVYYCAKQGLLSNYYYGMDVWGQGTTVTVSS
VL: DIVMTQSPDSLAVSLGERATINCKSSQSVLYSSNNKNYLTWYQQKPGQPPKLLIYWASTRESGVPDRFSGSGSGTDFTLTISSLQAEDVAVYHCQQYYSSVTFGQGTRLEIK

Biological target: SARS-CoV-2 "Delta" B.1.617.2 full-length Spike protein on pseudovirus (SARS-CoV-2, UniProt P0DTC2 14-1273)
Assay: cell-based or functional assay

Row | Binder | Pseudovirus Neturalization [µg/mL]
1 | B1 | 0.519
2 | B2 | > 50
3 | B3 | > 50
4 | B4 | 31.3
5 | B5 | > 50
6 | B6 | 0.03
7 | B7 | 0.574
8 | B8 | 0.003
9 | B9 | > 50
10 | B10 | 0.032
11 | B11 | 0.101
12 | B12 | 0.012
13 | B13 | > 50
14 | B14 | > 50
15 | B15 | > 50

Biological target: SARS-CoV-2 "Alpha" UK B.1.1.7 full-length Spike protein on pseudovirus (SARS-CoV-2, UniProt P0DTC2 14-1273)
Assay: cell-based or functional assay

Row | Binder | Pseudovirus Neturalization [µg/mL]
16 | B1 | 0.257
17 | B2 | 0.114
18 | B3 | 17.7
19 | B4 | > 50
20 | B5 | > 50
21 | B6 | 0.117
22 | B7 | 2.69
23 | B8 | 0.013
24 | B9 | 2.84
25 | B10 | > 50
26 | B11 | 7.23
27 | B12 | 0.275
28 | B13 | > 50
29 | B14 | > 50
30 | B15 | > 50

Biological target: SARS-CoV-2 "Delta-plus" B.1.617.2.1 full-length Spike protein on pseudovirus (SARS-CoV-2, UniProt P0DTC2 14-1273)
Assay: cell-based or functional assay

Row | Binder | Pseudovirus Neturalization [µg/mL]
31 | B1 | 0.809
32 | B2 | > 50
33 | B3 | 46.2
34 | B4 | > 50
35 | B5 | > 50
36 | B6 | 0.012
37 | B7 | 0.078
38 | B8 | 0.001
39 | B9 | > 50
40 | B10 | 2.29
41 | B11 | > 50
42 | B12 | > 50
43 | B13 | > 50
44 | B14 | > 50
45 | B15 | > 50

Biological target: SARS-CoV-2 "Gamma" Brazil P.1.B.1.1.28 full-length Spike protein on pseudovirus (SARS-CoV-2, UniProt P0DTC2 14-1273)
Assay: cell-based or functional assay

Row | Binder | Pseudovirus Neturalization [µg/mL]
46 | B1 | 0.327
47 | B2 | > 50
48 | B3 | 19.2
49 | B4 | > 50
50 | B5 | > 50
51 | B6 | 0.158
52 | B7 | 5.39
53 | B8 | 0.0114
54 | B9 | > 50
55 | B10 | > 50
56 | B11 | > 50
57 | B12 | > 50
58 | B13 | > 50
59 | B14 | > 50
60 | B15 | 40.6

Biological target: SARS-CoV-2 "Epsilon" B.1.427/9 full-length Spike protein on pseudovirus (SARS-CoV-2, UniProt P0DTC2 14-1273)
Assay: cell-based or functional assay

Row | Binder | Pseudovirus Neturalization [µg/mL]
61 | B1 | 0.974
62 | B2 | 33.6
63 | B3 | 14.1
64 | B4 | > 50
65 | B5 | > 50
66 | B6 | 0.032
67 | B7 | 0.629
68 | B8 | 0.003
69 | B9 | > 50
70 | B10 | 0.041
71 | B11 | 1.16
72 | B12 | 0.028
73 | B13 | > 50
74 | B14 | 38.4
75 | B15 | > 50

Biological target: SARS-CoV-2 "Beta" SA B.1.351 full-length Spike protein on pseudovirus (SARS-CoV-2, UniProt P0DTC2 14-1273)
Assay: cell-based or functional assay

Row | Binder | Pseudovirus Neturalization [µg/mL]
76 | B1 | 0.563
77 | B2 | > 50
78 | B3 | > 50
79 | B4 | > 50
80 | B5 | > 50
81 | B6 | 0.169
82 | B7 | 8.27
83 | B8 | 0.018
84 | B9 | > 50
85 | B10 | > 50
86 | B11 | > 50
87 | B12 | > 50
88 | B13 | > 50
89 | B14 | > 50
90 | B15 | > 50

Biological target: SARS-CoV-2 spike receptor-binding domain (RBD) (SARS-CoV-2, UniProt P0DTC2 319-541)
Assay: not given

Row | Binder | Kd [nM] | kon [M⁻¹ s⁻¹]
91 | B16 | 9.8 | 108000
